Measurements taken from PMC9409277, “Ethyl Vinyl Ketone Activates K^+ Efflux to Regulate Stomatal Closure by MRP4-Dependent eATP Accumulation Working Upstream of H2O2 Burst in Arabidopsis” (International Journal of Molecular Sciences, 2022).
Blank lines part the entries; values can stand above or below the binder they belong to.

Experiments:
[1] = molecular target: T1, DORN1-GST (DORN1 residues 344-616 in pGEX-4T-1) (Arabidopsis thaliana (Mouse-ear cress), UniProt Q9LSR8); test: GST pulldown with anti-His immunoblot
T1 chain: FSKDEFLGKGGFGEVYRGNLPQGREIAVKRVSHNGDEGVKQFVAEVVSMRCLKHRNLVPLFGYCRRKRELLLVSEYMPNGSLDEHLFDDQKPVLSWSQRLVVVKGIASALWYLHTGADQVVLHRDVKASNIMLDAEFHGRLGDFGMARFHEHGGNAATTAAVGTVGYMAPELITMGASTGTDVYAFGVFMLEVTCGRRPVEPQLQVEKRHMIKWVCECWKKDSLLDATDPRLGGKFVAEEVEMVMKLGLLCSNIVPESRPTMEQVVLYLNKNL

[2] = molecular target: T2, RBOHF-His (RBOHF residues 1-387 in pET28A) (Arabidopsis, UniProt O48538 1-387); test: pull-down; glutathione beads with 50 µg DORN1-GST or GST incubated with 50 µg RBOHF-His; 1% NP40, 150 mM NaCl, 50 mM Tris-HCl, 1 mM EDTA, pH 7.5; 4 °C, 2 h; immunoblot with anti-GST and anti-His; conditions: both partners purified
T2 construct: RBOHF of Arabidopsis (AT1G64060), residues 1-387; Cloned into pET28A via EcoRI/XhoI; also called RBOHF with His tag; source: E. coli Rosetta (DE3)
T2 sequence (looked up): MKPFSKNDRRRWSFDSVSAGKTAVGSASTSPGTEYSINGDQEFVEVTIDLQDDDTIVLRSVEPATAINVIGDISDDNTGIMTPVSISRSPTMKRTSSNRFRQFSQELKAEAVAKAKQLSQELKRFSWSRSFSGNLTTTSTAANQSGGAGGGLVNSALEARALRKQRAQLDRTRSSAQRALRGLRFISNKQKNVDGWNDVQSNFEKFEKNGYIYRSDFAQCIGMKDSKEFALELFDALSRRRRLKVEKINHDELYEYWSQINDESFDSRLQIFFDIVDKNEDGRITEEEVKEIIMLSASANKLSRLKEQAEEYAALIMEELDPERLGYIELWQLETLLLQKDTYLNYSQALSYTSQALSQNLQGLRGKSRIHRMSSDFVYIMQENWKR

binding result [1]: binds
B1: RBOHF-His (RBOHF residues 1-387 in pET28A) (protein)
chain: T2 sequence (looked up)

binding result [2]: binds
B2: DORN1-GST (DORN1 residues 344-616 in pGEX-4T-1) (domain or fragment, Arabidopsis, UniProt Q9LSR8 344-616, looked up)
chain: T1 chain
notes: DORN1 of Arabidopsis (AT5G60300), residues 344-616; Printed both as DORN1-GST and as GST–DORN1; cloned into pGEX-4T-1 via EcoRI/XhoI; also called DORN-GST; source: E. coli Rosetta (DE3), on glutathione beads
